From article PMC3226482 (Molecular Biology of the Cell, 2011)

Target: T1, karyopherin β2 (human, UniProt Q92973 1-898)
T1 sequence: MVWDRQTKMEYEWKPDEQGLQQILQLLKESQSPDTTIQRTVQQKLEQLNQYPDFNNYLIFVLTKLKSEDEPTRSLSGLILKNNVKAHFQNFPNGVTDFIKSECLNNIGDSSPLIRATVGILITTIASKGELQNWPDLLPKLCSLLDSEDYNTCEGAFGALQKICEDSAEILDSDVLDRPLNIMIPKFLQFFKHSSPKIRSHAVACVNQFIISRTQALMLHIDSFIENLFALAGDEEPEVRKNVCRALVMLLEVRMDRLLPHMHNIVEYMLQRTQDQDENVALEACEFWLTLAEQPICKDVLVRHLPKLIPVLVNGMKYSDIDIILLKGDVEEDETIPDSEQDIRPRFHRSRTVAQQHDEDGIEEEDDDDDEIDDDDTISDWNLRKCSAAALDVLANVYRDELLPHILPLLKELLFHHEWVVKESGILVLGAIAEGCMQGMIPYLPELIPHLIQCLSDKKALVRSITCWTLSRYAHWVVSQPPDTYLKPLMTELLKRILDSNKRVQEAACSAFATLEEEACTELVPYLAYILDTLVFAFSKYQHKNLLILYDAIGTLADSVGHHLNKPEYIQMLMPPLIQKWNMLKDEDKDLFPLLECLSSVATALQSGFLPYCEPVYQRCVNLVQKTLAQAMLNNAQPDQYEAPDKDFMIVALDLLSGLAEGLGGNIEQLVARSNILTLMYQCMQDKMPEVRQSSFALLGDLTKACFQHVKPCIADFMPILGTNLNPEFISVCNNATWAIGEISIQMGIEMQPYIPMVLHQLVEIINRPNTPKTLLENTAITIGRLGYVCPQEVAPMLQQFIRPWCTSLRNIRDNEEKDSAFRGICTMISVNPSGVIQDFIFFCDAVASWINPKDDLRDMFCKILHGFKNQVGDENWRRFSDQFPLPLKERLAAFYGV
Experiment: ITC

B1: hsNXF1 fragment, residues 1-92 (domain or fragment)
chain: MADEGKSYSEHDDERVNFPQRKKKGRGPFRWKYGEGNRRSGRGGSGIRSSRLEEDDGDVAMSDAQDGPRVRYNPYTTRPNRRGDTWHDRDRI
**Q.** B1 was tested. Which Kd did it give?
**A.** 54 nM
